These results are taken from publication PMC10350915, “Development of a New Class of CXCR4-Targeting Radioligands Based on the Endogenous Antagonist EPI-X4 for Oncological Applications” (Journal of Medicinal Chemistry, 2023).

A short description of series [1]: Shelf-life of 177Lu-labeled ligands at room temperature (radio-HPLC). It counts as physicochemical. The procedure:
The shelf-life of each ^177Lu-labeled ligand was monitored at room temperature up to 24 h after radiolabeling.
The shelf-lives of ^177Lu-labeled ligands were assessed at room temperature (RT) in the buffer used for labeling, as described above. For the analysis, 5 μL was withdrawn at desired time points (0, 1, 2, 4, and 24 h) from the stock solution and mixed with 50 μL of the Ca-DTPA solution. 20 μL of this mixture was withdrawn and injected in RP-HPLC.

Series [2] is classed as in vitro ADME, human. The conditions noted are these: human, plasma. How it is done:
Representative radiochromatograms are provided in Figure S25 for ^177Lu-1, ^177Lu-2, and ^177Lu-7. This included ^177Lu-9 despite its fatty acid chain.
(§1) Figure 3 Stability of the ^177Lu ligands in human plasma at 37 °C, expressed as % of intact radioligand over time, assessed by radio-HPLC. The % of plasma protein binding (PPB) after 60 min incubation is provided in parenthesis and it is expressed as the % of radioligand in the protein fraction (pellet) versus the total activity in the plasma. TEXT PRINTED IN THE PICTURE: ^177Lu-1: PPB: 35% | ^177Lu-2: PPB: 22% | ^177Lu-5: PPB: 42% | ^177Lu-6: PPB: 38% | ^177Lu-7: PPB: 39% | ^177Lu-9: PPB: 37%
To 1 mL of fresh human plasma, previously equilibrated at 37 °C, 500 pmol (8–10 MBq) of each ^177Lu-labeled ligand was added. The mixture was incubated at 37 °C for different time points (0, 15, 30, 60, and 120 min). At each time point, a 100 μL aliquot was removed and treated with 1.5 excess (v/v) of acetonitrile, to precipitate plasma proteins, followed by centrifugation for 5 min at 3500 rpm. The supernatant was collected and the process of protein precipitation was repeated. Afterward, 100 μL from the supernatant was taken, diluted with water at a ratio of 1:10 (v/v), and injected into radio-HPLC. The radioligand (in)stability was assessed by quantifying the percentage of intact radioligand over time.

Series [3] is classed as in vitro ADME. The conditions noted are these: human, plasma, plasma protein binding (PPB). The procedure: as §1
For the determination of plasma protein binding (PPB), 100 μL from the plasma incubated with the ^177Lu ligand was removed and measured in a γ-counter (total radioactivity). Protein precipitation and separation followed, as described above. The supernatant and the protein pellet were then measured in a γ-counter. The percentage of plasma protein binding was calculated as the ratio between the protein-bound radioactivity and the total radioactivity in the plasma.

Structures are written as SMILES. Square brackets hold non-standard residues; d marks the D form. Peptide text beside a SMILES is read from it. * marks the point of attachment. DOTA = O=C(O)CN1CCN(CC(=O)O)CCN(CC(=O)*)CCN(CC(=O)O)CC1

For orientation: fraction unbound means the share of the substance not bound to proteins or other matrix.

Turning to `CC[C@@H](C)[C@@H](N)C(=O)N[C@@H](CC(C)C)C(=O)N[C@@H](CCCNC(=N)N)C(=O)N[C@@H](Cc1c[nH]c2ccccc12)C(=O)N[C@@H](CO)C(=O)N[C@@H](CCCNC(=N)N)C(=O)N[C@@H](CCCCN)C(=O)N[C@@H](CCCCNC(=O)CN1CCN(CC(=O)O)CCN(CC(=O)O)CCN(CC(=O)O)CC1)C(N)=O` [^177Lu-7, metal not drawn] (H-[dI]LRWSRKK(DOTA)-NH2; N-terminus assumed), the “radiochemical purity (%)” value in series [1] (0 h after radiolabeling) was determined as 98 ± 1%; in series [1] (1 h after radiolabeling), 95 ± 0%; in series [1] (2 h after radiolabeling), 94 ± 0%; in series [1] (4 h after radiolabeling), 88 ± 3%. Also, the “metabolic stability in plasma (in words)” value in series [2] is recorded as “high metabolic stability in plasma up to 4 h”. The same compound gave a fraction unbound at 60 min in series [3] of 0.61.
